The nature of this data set: protein stability index of a GFP-peptide fusion (GPS, HEK-293T) (PSI 1-6); higher = more stable.
[1] abbreviates: treatment: DMSO, c terminus: a fixed tail appended.
The mark [2] stands for this setting: treatment: MLN4924 1 uM, 8 h, c terminus: a fixed tail appended.

± gives the standard deviation.

The text below walks through data of the supplement of paper PMC10567573.
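Further: 24-mer peptide tiles fused after GFP, lentivirally expressed, FACS-sorted into six equal bins by GFP/DsRed ratio, decoded by Illumina sequencing, PSI is the read-weighted mean bin number.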

With ILSGARVNAKDNMWLTPLHRAVAS [ANKRD44], the protein stability index amounted to 2.34 ± 0.1 under setting [1] and 2.4 ± 0.27 under setting [2].
The like results for ILSGKFTILNVRDPTGASIALFTA [PTPN9] were, in that order, 2.84 ± 0.73 and 3.19 ± 0.74.
The like results for ILSKVQKNHVGKPLLKMDLNSEQA [FAM98B] were, in that order, 3.62 ± 0.31 and 3.46 ± 0.47.
With ILVVTVQLILFGLSNQLAVTFREE [MCOLN1], the protein stability index is, setting by setting: under setting [1], 3.02 ± 0.39; under setting [2], 3.05 ± 0.23.
Take IMNFIDIVAIIPYFITLGTEIAEQ [KCNA1]: the protein stability index amounted to 3.2 ± 0.41 under setting [1] and 2.89 ± 0.15 under setting [2].
For the sequence IMSRVNAYQQGVGYQMLGNVVTIG [PHTF1], the protein stability index reads like this: under setting [1], 2.21 ± 0.48; under setting [2], 2.31 ± 0.34.
The like results for INSDTGVLYALRSFDYEQFHELQM [PCDHGA10] were, in that order, 2.2 ± 0.2 and 2.35 ± 0.29.
The like results for IPLDLGCTQVTQDGDIPNIPAEEN [FAM189A2] were, in that order, 5.48 ± 0.12 and 5.48 ± 0.18.
For IQECVPEDLELKKKIFAQLDSIID [CRYL1], the protein stability index amounted to 3.07 ± 0.2 under setting [1] and 3.33 ± 0.34 under setting [2].
IQLRRWQETRGELQCRSPPRLHGA [TBC1D10A]: the protein stability index runs as follows: under setting [1], 2.74 ± 0.23; under setting [2], 2.85 ± 0.39.
Regarding IQPGPFRAVLKYLYTGELDENERD [RHOBTB2], the protein stability index under setting [1] was 3.37 ± 0.53 and the protein stability index under setting [2] is 3.43 ± 0.25.
In the case of IRESRLFGAVVRWAEAECQRQQLP [BTBD1], the protein stability index came out at 2.5 ± 0.16 under setting [1] and 2.46 ± 0.13 under setting [2].
In the case of IRLGIEGYPTYKEKVKKRPGGRPE [BTBD10], the protein stability index is 3.41 ± 0.54 under setting [1] and 3.42 ± 0.41 under setting [2].
ISQMDSDQFIPIWTVANMEEIKKL [LARP4]: the protein stability index turned out to be 3.25 ± 0.19 under setting [1] and 3.32 ± 0.16 under setting [2].
Consider ITDNFCYFRHADPTWQNSIRHNLS [FOXJ1], for which the protein stability index reads like this: under setting [1], 2.32 ± 0.13; under setting [2], 2.43 ± 0.17.
For IVANTMPTHLSNGQMSTPETPQPS [HNF4A], the protein stability index reads like this: under setting [1], 4.43 ± 0.22; under setting [2], 4.51 ± 0.15.
In turn, IVAVIDSAQLQELVCHVMMGNLVM [INTS3] yielded a protein stability index under setting [1] of 3.25 ± 0.72 and a protein stability index under setting [2] of 3.05 ± 0.55.
Regarding IVDFLTHHAQTSKTERINALELLG [FEM1C], the protein stability index amounted to 2.09 ± 0.14 under setting [1] and 2.18 ± 0.23 under setting [2].
As for IVKKPKSMQCKVILLDGSEYTCDV [EPB41L3], the protein stability index by setting is: under setting [1], 1.93 ± 0.24; under setting [2], 2.23 ± 0.69.
For the sequence IVRFSGQSRGVPAVSESYSAPGAC [FBXO34], the protein stability index by setting is: under setting [1], 3.15 ± 0.34; under setting [2], 3.36 ± 0.38.
In the case of IYHLDGQETPYLVKLPLPAERVTL [DVL3], the protein stability index under setting [1] is 2.28 ± 0.24 and the protein stability index under setting [2] worked out at 2.34 ± 0.26.
On the same counts, the results for IYQYVQNSMAPHPARDYVVLRTWR [DLC1] are 1.93 ± 0.23 and 2.03 ± 0.37.
On the same counts, the results for KAGIEQEGYWLPGDEISIKKKNTN [ZMYND11] are 4.5 ± 0.3 and 4.62 ± 0.35.
The sequence KALYETELADARRALDDTARERAK [LMNB1] came in with a protein stability index under setting [1] of 5.191 ± 0.038 and a protein stability index under setting [2] of 5.22 ± 0.26.
For KAVANMQGEMDRKCKQVKEKCKEE [ZMYND11], the protein stability index reads like this: under setting [1], 5.14 ± 0.31; under setting [2], 5.31 ± 0.3.
KAVMKTSVLLSWEIPENYNSAMPF [PTPRD]: the protein stability index reads like this: under setting [1], 2.26 ± 0.67; under setting [2], 2.26 ± 0.43.
As to KEDGEPSWREAKVSWFGSPTTSFL [PWWP2B], the protein stability index amounted to 2.95 ± 0.082 under setting [1] and 3.17 ± 0.55 under setting [2].
For KEEREDTPIQLQELLALETALGGQ [TCAP], the protein stability index worked out at 5.17 ± 0.24 under setting [1] and 5.04 ± 0.14 under setting [2].
As for KESLCAKEEKCQGKGDDSETDKNN [KCNA4], the protein stability index under setting [1] was 5.62 ± 0.16 and the protein stability index under setting [2] came out at 5.42 ± 0.1.
Consider KESNANPIFMRKDTKMSFQWRIRN [DPCD], for which the protein stability index worked out at 2.83 ± 0.15 under setting [1] and 3.01 ± 0.24 under setting [2].
On the same counts, the results for KFSNIVDKFVIVDCRYPYEYEGGH [CDC25B] are 2.47 ± 0.16 and 2.25 ± 0.62.
On to KGDSTIRELKAKLSGVEEELQRTK [SASS6], for which the protein stability index under setting [1] is 4.86 ± 0.32 and the protein stability index under setting [2] turned out to be 4.58 ± 0.21.
As for KGNTALHDCAESGSLDIMKMLLMY [FEM1C], the protein stability index is 1.97 ± 0.22 under setting [1] and 1.96 ± 0.34 under setting [2].
Turning to KGYLFHTVAGKHQDLKYISPEIMA [CDC25A], the protein stability index is 2.32 ± 0.34 under setting [1] and 2.43 ± 0.23 under setting [2].
With KIEIQTLTGLFKGDKCHSLVGKPK [CASP6], the protein stability index is, setting by setting: under setting [1], 3.01 ± 0.12; under setting [2], 3.15 ± 0.42.
Take KIIAVGVIDILPNCVSSVYLYYDP [ATE1]: the protein stability index was determined as 2.62 ± 0.42 under setting [1] and 3.19 ± 0.43 under setting [2].
On the same counts, the results for KINAWDLYYYMTQTEELKYSIDQE [NLN] are 2.34 ± 0.3 and 2.19 ± 0.35.
For KKIVHYTCFDQRKRANAAFLIGAY [CDC14A], the protein stability index runs as follows: under setting [1], 2.37 ± 0.31; under setting [2], 2.07 ± 0.83.
As to KKPLAGSVDEQNALREVYAHAVLG [WEE1], the protein stability index came to 3.43 ± 0.18 under setting [1] and 3.54 ± 0.52 under setting [2].
Regarding KKVHKGTVPKNDADDESETPEELE [GLT8D2], the protein stability index by setting is: under setting [1], 5.49 ± 0.27; under setting [2], 5.65 ± 0.093.
KLKNLRRKQRRRERWLQKQGKYSG [RNF180]: the protein stability index by setting is: under setting [1], 3.83 ± 0.33; under setting [2], 3.93 ± 0.4.
Consider KLMKEILDKKVEKVTISNRLVSSP [HSP90AB1], for which the protein stability index stood at 2.81 ± 0.25 under setting [1] and 2.84 ± 0.42 under setting [2].
With KLQDLIKDVLRYGEEQLKTHKKCK [FCHO1], the protein stability index by setting is: under setting [1], 2.42 ± 0.35; under setting [2], 2.22 ± 0.29.
On to KNLFRLEMDMVVFRPEMKKHSWCL [N4BP2L1], for which the protein stability index reads like this: under setting [1], 2.48 ± 0.48; under setting [2], 2.4 ± 0.45.
The like results for KPYKCQQCDKRFRWSSDLNKHLTT [ZNF75A] were, in that order, 2.18 ± 0.14 and 2.37 ± 0.17.
As to KQKGSEENLDEAREQKEKSPPDQP [ADD1], the protein stability index reads like this: under setting [1], 5.68 ± 0.26; under setting [2], 5.78 ± 0.15.
For KQLIYRVRRTDDTPVVLVGNKSDL [RIT1], the protein stability index reads like this: under setting [1], 3.06 ± 0.26; under setting [2], 3.23 ± 0.23.
With KRAPGEETEKEEEEEDREEEDENG [NEUROD6], the protein stability index under setting [1] worked out at 5.6 ± 0.34 and the protein stability index under setting [2] came out at 5.69 ± 0.43.
Turning to KREACHCEEVKMTVASEAKIQLSD [FAN1], the protein stability index by setting is: under setting [1], 4.76 ± 0.19; under setting [2], 5 ± 0.18.
KRRRKSCQACRFMKCLKVGMLKEG [ESRRG]: the protein stability index under setting [1] worked out at 2.67 ± 0.2 and the protein stability index under setting [2] is 2.78 ± 0.25.
The like results for KSMKPYNYCSAYESFYESTSPECA [NEUROD6] were, in that order, 3.15 ± 0.17 and 3.23 ± 0.35.
The like results for KTSLWEEENALWEEERAFWMENNG [CCDC70] were, in that order, 4 ± 0.12 and 3.94 ± 0.19.
KVALEPQLWELGKVLRKAGLSAGY [LPCAT4]: the protein stability index came to 2.27 ± 0.26 under setting [1] and 2.21 ± 0.36 under setting [2].
The like results for KVEQNSRPVSCSGRDALLDQIRQG [WASL] were, in that order, 4 ± 0.16 and 3.96 ± 0.081.
Turning to KVHRARKTMPKSVVGLHAASKDPR [EHMT1], the protein stability index was 4.1 ± 0.16 under setting [1] and 4.08 ± 0.31 under setting [2].
With KVTISNRLVSSPCCIVTSTYGWTA [HSP90AB1], the protein stability index under setting [1] worked out at 2.84 ± 0.9 and the protein stability index under setting [2] is 2.51 ± 0.37.
The like results for KWDGKSTTIKRKREDDKLVVECVM [FABP4] were, in that order, 2.82 ± 0.3 and 2.83 ± 0.23.
Consider KWMLGAEDLTPEDDMPIGRNVLEL [PTPRD], for which the protein stability index was 3.9 ± 0.12 under setting [1] and 3.92 ± 0.44 under setting [2].
As to KWNTQTKARSYSYPHCTGISQQDP [ZC2HC1C], the protein stability index under setting [1] amounted to 3.33 ± 0.34 and the protein stability index under setting [2] was 3.63 ± 0.38.
Turning to KYPPDRECIYIIEAAPRQCIELYF [NETO1], the protein stability index turned out to be 3.13 ± 0.77 under setting [1] and 2.7 ± 1.3 under setting [2].
In the case of LACLHVACVVQQKDARQWFAELSV [CCNC], the protein stability index runs as follows: under setting [1], 3.22 ± 0.61; under setting [2], 3.28 ± 0.45.
Turning to LAEIRCDLERQNQEYQVLLDVRAR [KRT34], the protein stability index runs as follows: under setting [1], 3.57 ± 0.17; under setting [2], 3.59 ± 0.13.
Take LAIDAIHQLGFIHRDIKPDNLLLD [STK38L]: the protein stability index runs as follows: under setting [1], 2.23 ± 0.35; under setting [2], 2.04 ± 0.31.
As for LAMKIKVGSDDLERIEARLATLEG [PSD2], the protein stability index runs as follows: under setting [1], 2.79 ± 0.42; under setting [2], 2.85 ± 0.49.
With LANLSRTQLLHLGLTQGLIERLK [KLHDC10], the protein stability index runs as follows: (treatment: DMSO, c terminus: native) 2.38 ± 0.53; (treatment: MLN4924 1 uM, 8 h, c terminus: native) 2.35 ± 0.18.
For LAREGVAAFYKGYVPNMLGIIPYA [SLC25A25], the protein stability index reads like this: under setting [1], 2.42 ± 0.49; under setting [2], 2.38 ± 0.27.
Take LARGIHVAGILSLLLGTAYSFYLF [POMT2]: the protein stability index reads like this: under setting [1], 2.6 ± 0.62; under setting [2], 2.65 ± 0.47.
On the same counts, the results for LASITETIQVHRRYWRSLRVMKVE [HDAC6] are 2.42 ± 0.3 and 2.31 ± 0.16.
The like results for LASRNPCPWHYLHLSGSHNTLAPT [RSPH3] were, in that order, 2.41 ± 0.14 and 2.45 ± 0.16.
On the same counts, the results for LCDVTLMPGDTDDAFPVHRVMMAS [KLHL13] are 3.03 ± 0.34 and 3.2 ± 0.19.
LCNLGKERFLELAPDFVGDILWEH [ETS2] had a protein stability index under setting [1] of 2.46 ± 0.26 and a protein stability index under setting [2] of 2.28 ± 0.61.
For the sequence LCVNYFFYGETVADYFATFVQREE [CDS1], the protein stability index runs as follows: under setting [1], 3.4 ± 0.68; under setting [2], 2.61 ± 0.99.
